# Measurements as given in US20260297135 (published 2026).
# T1: integrin αvβ8 (human, UniProt P06756)
# T1 chain 1: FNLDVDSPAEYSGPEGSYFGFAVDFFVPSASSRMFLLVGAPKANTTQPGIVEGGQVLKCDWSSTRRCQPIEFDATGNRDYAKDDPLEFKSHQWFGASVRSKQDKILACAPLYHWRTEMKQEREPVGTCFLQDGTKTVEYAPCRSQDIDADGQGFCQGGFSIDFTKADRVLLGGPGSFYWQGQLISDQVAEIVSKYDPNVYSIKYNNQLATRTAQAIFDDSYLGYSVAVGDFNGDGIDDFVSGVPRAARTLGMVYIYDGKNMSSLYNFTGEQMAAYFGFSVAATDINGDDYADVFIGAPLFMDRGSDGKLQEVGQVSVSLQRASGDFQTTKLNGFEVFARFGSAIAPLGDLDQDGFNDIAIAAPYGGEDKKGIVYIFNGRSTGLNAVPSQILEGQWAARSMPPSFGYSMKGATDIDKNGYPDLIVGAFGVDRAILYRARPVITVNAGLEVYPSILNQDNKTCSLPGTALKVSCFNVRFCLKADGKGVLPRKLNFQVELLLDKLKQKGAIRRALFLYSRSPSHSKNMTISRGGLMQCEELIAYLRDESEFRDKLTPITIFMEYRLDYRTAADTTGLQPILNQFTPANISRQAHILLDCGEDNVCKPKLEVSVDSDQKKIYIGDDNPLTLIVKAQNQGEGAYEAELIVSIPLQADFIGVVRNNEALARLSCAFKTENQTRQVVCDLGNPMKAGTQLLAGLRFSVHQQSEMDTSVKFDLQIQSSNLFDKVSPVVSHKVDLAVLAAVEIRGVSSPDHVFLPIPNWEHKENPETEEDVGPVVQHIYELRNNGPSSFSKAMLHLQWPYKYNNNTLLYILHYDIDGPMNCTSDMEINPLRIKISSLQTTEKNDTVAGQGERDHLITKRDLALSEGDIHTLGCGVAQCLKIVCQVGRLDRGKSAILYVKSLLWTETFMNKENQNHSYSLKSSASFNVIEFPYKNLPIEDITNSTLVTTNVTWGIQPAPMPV
# T1 chain 2: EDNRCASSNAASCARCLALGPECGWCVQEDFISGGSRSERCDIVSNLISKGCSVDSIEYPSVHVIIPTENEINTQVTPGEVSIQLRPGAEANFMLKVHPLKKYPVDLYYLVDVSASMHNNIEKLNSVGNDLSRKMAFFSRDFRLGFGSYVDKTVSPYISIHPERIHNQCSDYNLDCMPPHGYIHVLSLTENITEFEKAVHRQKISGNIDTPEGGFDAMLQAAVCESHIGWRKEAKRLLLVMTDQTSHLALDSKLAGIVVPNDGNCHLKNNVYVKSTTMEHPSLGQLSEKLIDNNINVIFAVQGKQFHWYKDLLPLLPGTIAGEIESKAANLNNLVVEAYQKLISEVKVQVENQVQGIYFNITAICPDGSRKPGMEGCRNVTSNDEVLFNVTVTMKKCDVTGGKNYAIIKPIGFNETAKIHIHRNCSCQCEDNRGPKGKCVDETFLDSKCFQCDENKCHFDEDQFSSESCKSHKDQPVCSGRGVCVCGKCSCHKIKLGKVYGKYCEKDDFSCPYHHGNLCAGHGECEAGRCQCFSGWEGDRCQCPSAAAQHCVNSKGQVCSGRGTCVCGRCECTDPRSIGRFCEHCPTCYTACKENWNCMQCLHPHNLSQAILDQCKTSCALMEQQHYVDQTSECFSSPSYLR
# T2: integrin αvβ6 (human, UniProt P06756)
# T2 chain 1: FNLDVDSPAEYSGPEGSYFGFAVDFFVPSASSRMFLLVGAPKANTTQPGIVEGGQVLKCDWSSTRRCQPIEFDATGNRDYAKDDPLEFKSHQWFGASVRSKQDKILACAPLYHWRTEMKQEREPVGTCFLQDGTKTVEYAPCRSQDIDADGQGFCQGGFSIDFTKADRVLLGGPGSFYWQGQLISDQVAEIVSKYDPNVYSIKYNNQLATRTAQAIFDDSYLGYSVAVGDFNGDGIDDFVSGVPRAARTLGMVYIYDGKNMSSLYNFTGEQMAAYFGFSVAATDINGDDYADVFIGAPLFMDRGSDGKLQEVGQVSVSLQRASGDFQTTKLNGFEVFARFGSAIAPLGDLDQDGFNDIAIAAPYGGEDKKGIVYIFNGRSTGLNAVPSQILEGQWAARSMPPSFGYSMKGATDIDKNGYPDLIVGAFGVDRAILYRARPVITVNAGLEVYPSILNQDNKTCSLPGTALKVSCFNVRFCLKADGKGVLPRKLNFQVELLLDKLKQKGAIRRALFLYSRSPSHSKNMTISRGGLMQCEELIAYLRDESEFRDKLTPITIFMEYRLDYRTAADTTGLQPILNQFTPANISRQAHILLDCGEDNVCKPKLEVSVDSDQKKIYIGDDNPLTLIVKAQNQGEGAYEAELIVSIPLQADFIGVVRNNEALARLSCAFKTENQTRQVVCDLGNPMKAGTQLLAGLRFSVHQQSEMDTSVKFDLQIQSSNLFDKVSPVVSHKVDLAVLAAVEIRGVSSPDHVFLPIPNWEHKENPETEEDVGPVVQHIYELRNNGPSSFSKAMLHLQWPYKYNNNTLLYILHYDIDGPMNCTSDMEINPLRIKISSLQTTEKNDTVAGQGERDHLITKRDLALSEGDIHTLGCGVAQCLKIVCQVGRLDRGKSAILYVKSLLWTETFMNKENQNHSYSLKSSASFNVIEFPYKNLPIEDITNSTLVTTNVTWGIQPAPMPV
# T2 chain 2: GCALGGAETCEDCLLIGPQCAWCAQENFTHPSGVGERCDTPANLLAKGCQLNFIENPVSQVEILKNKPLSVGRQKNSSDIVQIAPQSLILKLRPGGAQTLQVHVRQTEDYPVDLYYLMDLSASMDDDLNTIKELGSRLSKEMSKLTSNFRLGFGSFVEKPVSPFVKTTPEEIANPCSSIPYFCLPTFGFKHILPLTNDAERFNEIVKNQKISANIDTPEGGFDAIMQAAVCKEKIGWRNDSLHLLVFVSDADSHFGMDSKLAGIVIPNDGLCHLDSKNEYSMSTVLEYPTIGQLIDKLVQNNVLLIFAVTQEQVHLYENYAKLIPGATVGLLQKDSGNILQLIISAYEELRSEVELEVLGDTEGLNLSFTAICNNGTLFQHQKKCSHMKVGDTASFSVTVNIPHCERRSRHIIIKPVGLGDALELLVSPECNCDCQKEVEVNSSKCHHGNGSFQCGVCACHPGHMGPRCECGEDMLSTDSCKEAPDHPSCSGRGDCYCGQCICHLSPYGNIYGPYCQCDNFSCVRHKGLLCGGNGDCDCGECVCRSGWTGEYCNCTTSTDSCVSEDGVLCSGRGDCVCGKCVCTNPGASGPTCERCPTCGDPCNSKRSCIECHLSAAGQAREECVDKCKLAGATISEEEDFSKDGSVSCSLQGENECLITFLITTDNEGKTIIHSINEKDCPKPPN
# How the values were obtained:
# integrin αvβ8 [1] = biological target: T1, integrin αvβ8; assay: BLI
# integrin αvβ6 [2] = biological target: T2, integrin αvβ6; assay: BLI, at 500 nM
# integrin αvβ6 [3] = biological target: T2, integrin αvβ6; assay: BLI
# integrin αvβ6 [4] = biological target: T2, integrin αvβ6; assay: competition, hLAP1
# integrin αvβ8 [5] = biological target: T1, integrin αvβ8; assay: competition, hLAP1
Binder,Kd (integrin αvβ8 [1]),binding result (integrin αvβ6 [2]),Kd (integrin αvβ6 [3]),binding result (integrin αvβ6 [4]),IC50 (integrin αvβ8 [5])
B8_BP-LATY (avb8_3_LATY) (designed binder) TKCVVRFNFRGDLATYALKAVKDHLKKEGPHWNITTHNDDEVYLVVRGIHESDAKRIAKWVESTIPGISVETQCD,0.5 nM,no binding,,,
avb8_12 (LATI) (designed binder) TKCVVRFNFRGDLATIALKAVKDHLKKEGPHWNITTHNDDEVYLVVRGIHESDAKRIAKWVESTIPGISVETQCD,,,1.13 nM,,
B8_BP_dslf (avb8_3) (designed binder) TKCVVRFNFRGDMAVYALKAVKDHLKKEGPHWNITTHNDDEVYLVVRGIHESDAKRIAKWVESTIPGISVETQCD,1.9 nM,,,no binding,2.68 nM
